Source: patent US7183387 (Genentech, dated 2007)

T1: human FcγRIIA-R131 α subunit extracellular domain-6His-GST fusion (human, UniProt P12318 34-217)
T1 construct: also called FcγRIIA-Arg131; not shown: glutathione S-transferase (GST)
T1 sequence: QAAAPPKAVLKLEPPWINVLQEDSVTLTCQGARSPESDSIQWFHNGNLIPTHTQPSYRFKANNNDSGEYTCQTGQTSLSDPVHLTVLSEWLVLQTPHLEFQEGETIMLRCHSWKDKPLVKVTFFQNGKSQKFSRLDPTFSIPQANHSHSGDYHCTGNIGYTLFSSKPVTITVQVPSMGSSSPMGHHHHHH

T2: human FcγRIIB α subunit extracellular domain-6His-GST fusion (human, UniProt P31994 43-217)
T2 construct: not shown: glutathione S-transferase (GST)
T2 sequence: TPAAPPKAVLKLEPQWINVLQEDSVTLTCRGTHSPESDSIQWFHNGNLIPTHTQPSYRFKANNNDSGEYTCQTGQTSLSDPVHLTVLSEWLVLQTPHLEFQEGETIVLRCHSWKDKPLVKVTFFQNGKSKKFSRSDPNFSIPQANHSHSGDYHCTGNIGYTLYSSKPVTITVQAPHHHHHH


Experiments:
Test in all cases: ELISA, IgG:IgE hexamers on receptor-GST
[1] = biological target: T1, human FcγRIIA-R131 α subunit …
[2] = biological target: T2, human FcγRIIB α subunit extracellular …
[3] = biological target: T3, human FcγRIIIA-F158 α subunit extracellular domain-6His-GST fusion (human, UniProt P08637 17-208)
T3 construct: also called FcγRIIIA-Phe158; not shown: glutathione S-transferase (GST)
T3 sequence (P08637 other isoform, or with tags, fused parts or gaps, form in doubt): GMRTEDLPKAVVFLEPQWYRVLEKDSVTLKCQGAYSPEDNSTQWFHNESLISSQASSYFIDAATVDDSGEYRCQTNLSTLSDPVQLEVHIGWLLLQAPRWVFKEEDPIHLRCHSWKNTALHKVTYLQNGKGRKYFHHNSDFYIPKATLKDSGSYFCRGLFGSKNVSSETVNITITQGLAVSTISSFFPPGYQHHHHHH

Binder	ratio to native IgG1 [1]	ratio to native IgG1 [2]	ratio to native IgG1 [3]
E27 IgG1 variant E333(352)Q (antibody) heavy: not shown light: DIQLTQSPSSLSASVGDRVTITCRASKPVDGEGDSYLNWYQQKPGKAPKLLIYAASYLESGVPSRFSGSGSGTDFTLTISSLQPEDFATYYCQQSHEDPYTFGQGTKVEIKRTVAAPSVFIFPPSDEQLKSGTASVVCLLNNFYPREAKVQWKVDNALQSGNSQESVTEQDSKDSTYSLSSTLTLSKADYEKHKVYACEVTHQGLSSPVTKSFNRGEC	0.7	0.64	1.05
E27 IgG1 variant H268(281)S (antibody, also called IG2 85) heavy: not shown light: DIQLTQSPSSLSASVGDRVTITCRASKPVDGEGDSYLNWYQQKPGKAPKLLIYAASYLESGVPSRFSGSGSGTDFTLTISSLQPEDFATYYCQQSHEDPYTFGQGTKVEIKRTVAAPSVFIFPPSDEQLKSGTASVVCLLNNFYPREAKVQWKVDNALQSGNSQESVTEQDSKDSTYSLSSTLTLSKADYEKHKVYACEVTHQGLSSPVTKSFNRGEC	1.35	1.38	0.81
E27 IgG1 variant K290(307)S (antibody, also called IG2 75) heavy: not shown light: DIQLTQSPSSLSASVGDRVTITCRASKPVDGEGDSYLNWYQQKPGKAPKLLIYAASYLESGVPSRFSGSGSGTDFTLTISSLQPEDFATYYCQQSHEDPYTFGQGTKVEIKRTVAAPSVFIFPPSDEQLKSGTASVVCLLNNFYPREAKVQWKVDNALQSGNSQESVTEQDSKDSTYSLSSTLTLSKADYEKHKVYACEVTHQGLSSPVTKSFNRGEC	1.27	1.34	1.26
E27 IgG1 variant K290(307)G (antibody, also called IG2 177) heavy: not shown light: DIQLTQSPSSLSASVGDRVTITCRASKPVDGEGDSYLNWYQQKPGKAPKLLIYAASYLESGVPSRFSGSGSGTDFTLTISSLQPEDFATYYCQQSHEDPYTFGQGTKVEIKRTVAAPSVFIFPPSDEQLKSGTASVVCLLNNFYPREAKVQWKVDNALQSGNSQESVTEQDSKDSTYSLSSTLTLSKADYEKHKVYACEVTHQGLSSPVTKSFNRGEC	1.07	1.21	1.23
E27 IgG1 variant K320(339)M (antibody, also called IG2 202) heavy: not shown light: DIQLTQSPSSLSASVGDRVTITCRASKPVDGEGDSYLNWYQQKPGKAPKLLIYAASYLESGVPSRFSGSGSGTDFTLTISSLQPEDFATYYCQQSHEDPYTFGQGTKVEIKRTVAAPSVFIFPPSDEQLKSGTASVVCLLNNFYPREAKVQWKVDNALQSGNSQESVTEQDSKDSTYSLSSTLTLSKADYEKHKVYACEVTHQGLSSPVTKSFNRGEC	1.34	1.4	1.27
E27 IgG1 variant H268(281)N (antibody, also called IG2 84) heavy: not shown light: DIQLTQSPSSLSASVGDRVTITCRASKPVDGEGDSYLNWYQQKPGKAPKLLIYAASYLESGVPSRFSGSGSGTDFTLTISSLQPEDFATYYCQQSHEDPYTFGQGTKVEIKRTVAAPSVFIFPPSDEQLKSGTASVVCLLNNFYPREAKVQWKVDNALQSGNSQESVTEQDSKDSTYSLSSTLTLSKADYEKHKVYACEVTHQGLSSPVTKSFNRGEC	1.33	1.41	0.56
E27 IgG1 variant K320(339)E (antibody, also called IG2 205) heavy: not shown light: DIQLTQSPSSLSASVGDRVTITCRASKPVDGEGDSYLNWYQQKPGKAPKLLIYAASYLESGVPSRFSGSGSGTDFTLTISSLQPEDFATYYCQQSHEDPYTFGQGTKVEIKRTVAAPSVFIFPPSDEQLKSGTASVVCLLNNFYPREAKVQWKVDNALQSGNSQESVTEQDSKDSTYSLSSTLTLSKADYEKHKVYACEVTHQGLSSPVTKSFNRGEC	1.29	1.34	1.12
E27 IgG1 variant K274(287)Q (antibody) heavy: not shown light: DIQLTQSPSSLSASVGDRVTITCRASKPVDGEGDSYLNWYQQKPGKAPKLLIYAASYLESGVPSRFSGSGSGTDFTLTISSLQPEDFATYYCQQSHEDPYTFGQGTKVEIKRTVAAPSVFIFPPSDEQLKSGTASVVCLLNNFYPREAKVQWKVDNALQSGNSQESVTEQDSKDSTYSLSSTLTLSKADYEKHKVYACEVTHQGLSSPVTKSFNRGEC	0.86	0.94	0.62
E27 IgG1 variant K290(307)Q (antibody, also called IG2 73) heavy: not shown light: DIQLTQSPSSLSASVGDRVTITCRASKPVDGEGDSYLNWYQQKPGKAPKLLIYAASYLESGVPSRFSGSGSGTDFTLTISSLQPEDFATYYCQQSHEDPYTFGQGTKVEIKRTVAAPSVFIFPPSDEQLKSGTASVVCLLNNFYPREAKVQWKVDNALQSGNSQESVTEQDSKDSTYSLSSTLTLSKADYEKHKVYACEVTHQGLSSPVTKSFNRGEC	1.17	1.26	1.4
E27 IgG1 variant H268(281)Y (antibody, also called IG2 87) heavy: not shown light: DIQLTQSPSSLSASVGDRVTITCRASKPVDGEGDSYLNWYQQKPGKAPKLLIYAASYLESGVPSRFSGSGSGTDFTLTISSLQPEDFATYYCQQSHEDPYTFGQGTKVEIKRTVAAPSVFIFPPSDEQLKSGTASVVCLLNNFYPREAKVQWKVDNALQSGNSQESVTEQDSKDSTYSLSSTLTLSKADYEKHKVYACEVTHQGLSSPVTKSFNRGEC	1.19	1.29	0.76
E27 IgG1 variant E333(352)R (antibody) heavy: not shown light: DIQLTQSPSSLSASVGDRVTITCRASKPVDGEGDSYLNWYQQKPGKAPKLLIYAASYLESGVPSRFSGSGSGTDFTLTISSLQPEDFATYYCQQSHEDPYTFGQGTKVEIKRTVAAPSVFIFPPSDEQLKSGTASVVCLLNNFYPREAKVQWKVDNALQSGNSQESVTEQDSKDSTYSLSSTLTLSKADYEKHKVYACEVTHQGLSSPVTKSFNRGEC	0.75	0.66	0.84

The remaining lines, values ahead:

ratio to native IgG1 [1]	ratio to native IgG1 [2]	ratio to native IgG1 [3]	Binder
0.87	0.92	0.78	E27 IgG1 variant K322(341)Q (antibody) heavy: not shown light: DIQLTQSPSSLSASVGDRVTITCRASKPVDGEGDSYLNWYQQKPGKAPKLLIYAASYLESGVPSRFSGSGSGTDFTLTISSLQPEDFATYYCQQSHEDPYTFGQGTKVEIKRTVAAPSVFIFPPSDEQLKSGTASVVCLLNNFYPREAKVQWKVDNALQSGNSQESVTEQDSKDSTYSLSSTLTLSKADYEKHKVYACEVTHQGLSSPVTKSFNRGEC
0.87	0.87	0.92	E27 IgG1 variant K322(341)R (antibody, also called IG2 155) heavy: not shown light: DIQLTQSPSSLSASVGDRVTITCRASKPVDGEGDSYLNWYQQKPGKAPKLLIYAASYLESGVPSRFSGSGSGTDFTLTISSLQPEDFATYYCQQSHEDPYTFGQGTKVEIKRTVAAPSVFIFPPSDEQLKSGTASVVCLLNNFYPREAKVQWKVDNALQSGNSQESVTEQDSKDSTYSLSSTLTLSKADYEKHKVYACEVTHQGLSSPVTKSFNRGEC
1.23	1.12	1.17	E27 IgG1 variant K320(339)Q (antibody, also called IG2 204) heavy: not shown light: DIQLTQSPSSLSASVGDRVTITCRASKPVDGEGDSYLNWYQQKPGKAPKLLIYAASYLESGVPSRFSGSGSGTDFTLTISSLQPEDFATYYCQQSHEDPYTFGQGTKVEIKRTVAAPSVFIFPPSDEQLKSGTASVVCLLNNFYPREAKVQWKVDNALQSGNSQESVTEQDSKDSTYSLSSTLTLSKADYEKHKVYACEVTHQGLSSPVTKSFNRGEC
0.57	0.36	0.04	E27 IgG1 variant K322(341)N (antibody, also called IG2 207) heavy: not shown light: DIQLTQSPSSLSASVGDRVTITCRASKPVDGEGDSYLNWYQQKPGKAPKLLIYAASYLESGVPSRFSGSGSGTDFTLTISSLQPEDFATYYCQQSHEDPYTFGQGTKVEIKRTVAAPSVFIFPPSDEQLKSGTASVVCLLNNFYPREAKVQWKVDNALQSGNSQESVTEQDSKDSTYSLSSTLTLSKADYEKHKVYACEVTHQGLSSPVTKSFNRGEC
1.68	2.01	1.36	E27 IgG1 variant K326(345)D (antibody, also called IG2 211) heavy: not shown light: DIQLTQSPSSLSASVGDRVTITCRASKPVDGEGDSYLNWYQQKPGKAPKLLIYAASYLESGVPSRFSGSGSGTDFTLTISSLQPEDFATYYCQQSHEDPYTFGQGTKVEIKRTVAAPSVFIFPPSDEQLKSGTASVVCLLNNFYPREAKVQWKVDNALQSGNSQESVTEQDSKDSTYSLSSTLTLSKADYEKHKVYACEVTHQGLSSPVTKSFNRGEC
1.38	1.34	0.81	E27 IgG1 variant K322(341)E (antibody) heavy: not shown light: DIQLTQSPSSLSASVGDRVTITCRASKPVDGEGDSYLNWYQQKPGKAPKLLIYAASYLESGVPSRFSGSGSGTDFTLTISSLQPEDFATYYCQQSHEDPYTFGQGTKVEIKRTVAAPSVFIFPPSDEQLKSGTASVVCLLNNFYPREAKVQWKVDNALQSGNSQESVTEQDSKDSTYSLSSTLTLSKADYEKHKVYACEVTHQGLSSPVTKSFNRGEC
1.34	1.47	1.26	E27 IgG1 variant K326(345)E (antibody, also called IG2 212) heavy: not shown light: DIQLTQSPSSLSASVGDRVTITCRASKPVDGEGDSYLNWYQQKPGKAPKLLIYAASYLESGVPSRFSGSGSGTDFTLTISSLQPEDFATYYCQQSHEDPYTFGQGTKVEIKRTVAAPSVFIFPPSDEQLKSGTASVVCLLNNFYPREAKVQWKVDNALQSGNSQESVTEQDSKDSTYSLSSTLTLSKADYEKHKVYACEVTHQGLSSPVTKSFNRGEC
